The values that follow come from publication PMC10983743.

This assay concerns the target T1, Podoplanin (PDPN) on PDPN+ B16-F0 murine melanoma cells (mouse (endogenous in B16-F0)) (UniProt Q62011).
T1 sequence: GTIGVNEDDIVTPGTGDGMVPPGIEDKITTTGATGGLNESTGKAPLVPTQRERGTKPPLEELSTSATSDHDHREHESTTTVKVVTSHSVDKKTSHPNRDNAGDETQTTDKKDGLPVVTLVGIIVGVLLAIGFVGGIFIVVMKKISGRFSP

B1: C-type lectin-like receptor 2 (CLEC-2) on platelets of WT C57BL/6J mice (receptor)
chain: MQDEDGYITLNIKPRKQALSSAEPASSWWRVMALVLLISSMGLVVGLVALGIMSVTQQKYLLAEKENLSATLQQLAKKFCQELIRQSEIKTKSTFEHKCSPCATKWRYHGDSCYGFFRRNLTWEESKQYCTEQNATLVKTASQSTLDYIAERITSVRWIGLSRQNSKKDWMWEDSSVLRKNGINLSGNTEENMNCAYLHNGKIHPASCKERHYLICERNAGMTRVDQLL
B1: the percent of tumour cells associated with platelets, counted under a fluorescence microscope (WT platelets mixed with PDPN+ B16-F0 cells, 1:200 tumour cells:platelets, 20 min at 37 °C) was 65%.
